The source of these data is paper PMC3064786.

The data set addresses HMGA1a-FLAG (UniProt P17096 1-107). Description: EMSA. In general terms: Mobility shift assays separate free from complexed probe on a gel.

Sequence of HMGA1a-FLAG (P17096 whole entry): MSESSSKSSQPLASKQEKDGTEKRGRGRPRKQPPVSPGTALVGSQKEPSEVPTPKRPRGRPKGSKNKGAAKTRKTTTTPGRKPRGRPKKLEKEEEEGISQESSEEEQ

B1: IL2-Rα promoter fragment (-136 to -76) (dsDNA)
DNA 1: ACCGCAAACTATATTGTCATCAAAAAAAAAAAAAAAAAAACACTTCCTATATTTGAGATG
DNA 2: CATCTCAAATATAGGAAGTGTTTTTTTTTTTTTTTTTTTGATGACAATATAGTTTGCGGT
On to B1, for which the binding result is “binds”.
